Target: S2 component of the furin-cleaved SARS-CoV-2 spike ectodomain ('2P' mutant) (SARS-CoV-2) (UniProt P0DTC2)
Assay: cryo-EM structure

In the case of “S2 component of the furin-cleaved SARS-CoV-2 spike ectodomain ('2P' mutant) (from UniProt P0DTC2) (domain or fragment)”, the stoichiometry N is reported as 3.
